Here are results for 3 variants from FireProtDB (doi:10.1016/s0301-4622(99)00119-2).

Sequences and labels used below:
B1: Cytochrome b5, P00171 (parent)
chain: MAEESSKAVKYYTLEEIQKHNNSKSTWLILHYKVYDLTKFLEEHPGGEEVLREQAGGDATENFEDVGHSTDARELSKTFIIGELHPDDRSKITKPSESIITTIDSNPSWWTNWLIPAISALFVALIYHLYTSEN

The variants in this data set derive from B1. The conditions noted are these: Bos taurus, pH 7, Thermal, Absorbance, Sodium phosphate 100 mM, structure 1CYO, whole UniProt chain shown.

For MAEESSKAVKYYTLEEIQKHNNSKSTWLILHYKVYDLTKFLEEHPGGEEHLREQAGGDATENFEDVGHSTDARELSKTFIIGELHPDDRSKITKPSESIITTIDSNPSWWTNWLIPAISALFVALIYHLYTSEN, the “ddG of mutation (higher = less stable)” value (77.6 °C) amounted to 5.82 kJ/mol.

Turning to MAEESSKAVKYYTLEEIQKHNNSKSTWLILHYKVYDLTKFLEEHPGGEEYLREQAGGDATENFEDVGHSTDARELSKTFIIGELHPDDRSKITKPSESIITTIDSNPSWWTNWLIPAISALFVALIYHLYTSEN, the “ddG of mutation (higher = less stable)” value reads like this: (66.7 °C) 6.4 kJ/mol; (77.6 °C) 6.49 kJ/mol.

As for MAEESSKAVKYYTLEEIQKHNNSKSTWLILHYKVYDLTKFLEEHPGGEEELREQAGGDATENFEDVGHSTDARELSKTFIIGELHPDDRSKITKPSESIITTIDSNPSWWTNWLIPAISALFVALIYHLYTSEN, the “ddG of mutation (higher = less stable)” value reads like this: (66.7 °C) 11.2 kJ/mol; (77.6 °C) 8.62 kJ/mol.
